From a protein production outcome set (Wang et al. 2014)

Assay: label from the status in PepcDB records

Row | Sequence | protein production
1 | LLGLGVGPGDPELITLKALRLLRAAPVVGYFVAKGKKGNAFGIIEAHLDQAQVRLPLVYPVTTEKLEPPLCYETIISDFYDTAAEQLAAHLDAGRDVAVICEGDPFFYGSYMYLHDRLATRYESEVVPGVCSMLGGAAVLGAPLVYRNQSLSVLSGVLPEEELRRRLADADAAVVMKLGRNFDKVRRVLVELGLERRALYVERATMANQRIVPLERVEPMASPYFSLIVVPGDKWQGGAGGE | failed
2 | LLSLALAALMEDVHAHSGAVYLLAPDEPVLEMAVMAGLPRAFAAPWERVGLSAPLPVAEAVRERRLVWVNGEEQMAGRYPRVAVVLPYSFALAALPLACADTVYGALFVTWPDSHPPELSSRERDQLGVACDRLATRLAHA | failed
3 | LNDALLLMEANIEDPLTTDEIAGLVGVSRRQLERLFRQYLGAMPSKYYLNLRLLKARTQLQRTSKSVVQVSLACGFSSAAHFSNAYRERFGVTPREDRRA | not failed
4 | LNLPYDEHADAWTQVKKALAAGKRTHKPTLLVFGANWCTDCRALDKSLRNQKNTALIAKHFEVVKIDVGNFDRNLELSQAYGDPIQDGIPAVVVVNSDGKVRYTTKGGELANARKMSDQGIYDFFAKITETRGV | failed
5 | LNTNQLFAYLNRGDIAEFKFSPLFTTLFFPNVATFSTQNIMLDTLDIEEVTMSAFCSPMVGSQVQRDKGYETSTIKPGYMKPKHEIDPTKTIMRMAGEDPAQLNDPTYRRMRLITGNMRRQINAIKARVEWLAVNAVTTGKNIIEGEGIERYEIDWKIPEKNIIEQADGKKWSEQDKETHYPIYDIELYADQAGCPANVMIMGAEVWRTLRSFKKFRELYDLSRGSESAAELACKNLGEVVSFKGYLGDLALIVYSGKYTDSDGTEKYFLEPDLLVLGNTNNKGLVAYGAIMDQEAVRTGATQNMFYPKNWIEDGDPAIEYVQTHSAPQPVPADIRKFVTVKIA | failed
6 | LPRQIAATVDLNSHGAGEHLDEQVIHCAHDLALQCNAELHLLHVCDAAKTHIADFGAGTVTMPGFDSSVRTAQRAAFNRLGDHHQIPLERRHFLEGAAIRAIAQFVGHNRVDVIVMGSHRHDAMQTFLGGTTAHVLEHPLCNVLAIKAVR | failed
7 | LPVILWFLAHGLDVVFIDYPRDPATGVQYYCDSIAAAKSLLDAVLASRQLGLSPEAPLGLWGFSQGGGATGWAAQLQDYAPDVRPKAAVVGAPPVDLFRVLDTVDGGLLTGVIAYAIAGLAVNSSEMFEEIMSVLNERGVSDVLKNITSCAGGSLLASGYSSSRGWTHQGTPLADILDDLPLVVAEFGKQKLGRVAPEIPVLLWGSKNDDVIPIDPIRELRDSWADKGTPLTWHESQAPRVPGRTGLNHFGPYFRNLEKYSGWLIDHL | failed
8 | LQQFLDALASSPEKIEFETTMAVIEDNYDFTPAAFTNGNTQNDANENNGSCKIFAFGLLNALDKEATLACFGRFYREDVLLHPENNDHQNIRNFMVTGWEGIQFETSALTAK | not failed
9 | LRASEIMNRTLDLQIIMDDLLNLLLKEFKLDLAVIRLVDEKGVLRVRSYSGKGIAGIAGKDWEPEIETYIGEAFLSNRLQFVNDTQYMTKPLTRELMQKEGIKSFAHIPISRKGEPPFGILSVFSRTIVGLFNEPFLNLLESLAGQLAQAVKIVTEMEAKEREREEKERILLENA | not failed
10 | LRGTHSQLRCVLNAATQVAIIATDLRGVISTFNAGAEQMLGYSSSEAVGHLTLESLHLPEELESWAQSLTQRYGKAIPVSQAMLVEEGMAGGHEAREWTLVRRDGSHLQVNMLATPVLDDQGLWIGHLAICIDITERKRVHEA | failed
11 | LRTIVELMENNLEETLSLDQLAAYSGRSRRQIDRLFQAQLGTSPRRYYMELRITKSRRLLQYSDLSVMEVAVACGFVSVSHFSKCYAAYFGYPPSREQRLGE | failed
12 | LSASEERFQLAVSGASAGLWDWNPKTGAMYLSPHFKKIMGYEDHELPDEITGHRESIHPDDRARVLAALKAHLEHRDTYDVEYRVRTRSGDFRWIQSRGQALWNSAGEPYRMVGWIMDVTDRKRDEDALRVSREELRRL | not failed
13 | LTPLAQMAEGMERQDVSIDKWTLHAKQNLSLTEKEFYQKVQRLKQEYRQYDWVIAREDKMIKAIGTYTDKKNRTSFRLQLVTTLKKHNPTSYLLYEQMSLETPDSWNDTYEQFERETLGIFQEKVVIFTCLNGHLDDNMNIVLQKKANQLLNEFQARSVEHVVEPNFVSISAFTDEWEEYIMTSKHKMNLQIALRSAGMGGKHTVTVGTPIVTTEY | not failed
14 | LTTTSADYIGPIVEHQYLQWDNWPRLGEILRSEKPLAFQQESRFAHDTRARDAFNDAMVRLSQPMVDVVSELGVFARARTVIDLAGGHGTYLAQVLRRHPQLTGQIWDLPTTRDAARKTIHAHDLGGRVEFFEKNLLDARNFEGGAADVVMLNDCLHYFDAREAREVIGHAAGLVKPGGALLILTMTMNDDRVTPALSADFSLHMMVNTNHGELHPTPWIAGVVRDAGLAVGERSIGRYTLLIGQRSSGEV | failed
15 | LVAVDEFIRRHFSQPVTMAELTGIAGMSAAQLERYCKKVFHLSPRQMIHKARLEHAHRLLHADMAITEVALRCGYADHSAFSRQFKALTGLTPRQYRQQ | failed
16 | LVKETACAVVDKLKSGEVTPIEVLDVLEERIAEVDGAINALPTLCFDRARGHAAELMKKPPAERGLLAGLPVPIKDLTAVAGVLTTQGSPIYKDNVPARSDLMVEHLEGNGGVVYAKSNTPEFGAGANTFNEVFGATRNPWDLSRSAAGSSGGAAAALASGTAWLAHGSDMGGSLRNPASFCGIVGLRPSFGRVAHTPAAKIDRNLGVQGPMARNVEDVALLLDAMSGEYAADPLSIPSPATSFLAAARSRQKPLRVAYSPDLGITPVDPEVAAVTRKAAERFAEAGVIVEQAQPDLSEAHECFQALRAFDFAISKADLLRTKRDLLKPEVIWNIEQGLKLSVDDLAKAEAQRVAMTARTIEFFKTYDLLLCPATITAPFPVEQRYLAECNGHTFGNYVEWLGIVYAITLVCCPALSLPCGFTATGLPIGLQMVARPRNEAGLLAGAALLEDILGLKSTTP | failed
17 | LVVSEARFRAAIDAVQGVLWTNNASGKMVGEQPGWSALTGQIREEYEGVGWTKVVHPDDVEPTLSAWLAAVAEKRTFEFEHRVRRHDGVWRDCLIRAVPLIGDNGEIREWVGVHTDISEQKAAAEK | failed
18 | MAAAGEEYSSDKIEERSLAAIDSMIDPDISGPMRHIVVKAIHAAGDFAIAPLIRYSDGFFKSMLAKLKEGCTIICDSEMVRAGIYSRPVLERNRVVCYLNDVRSKEMADVNGITRSAAGIRIAMQDHRNSVIVIGNAPTALLEAMRMIEENGWYDIPIVGIPVGFINASKAKEGLVSSHIEYISVEGHRGGSPIAASIVNGFGRFLA | not failed
19 | MAAAMVPGRSESWERGEPGRPALYFCGSIRGGREDRTLYERIVSRLRRFGTVLTEHVAAAELGARGEEAAGGDRLIHEQDLEWLQQADVVVAEVTQPSLGVGYELGRAVAFNKRILCLFRPQSGRVLSAMIRGAADGSRFQVWDYEEGEVEALLDRYFEADPPGQVAASPDPTT | failed
20 | MAADPASAPVLLHPRRAMVLAAGLGLRMRPLTETMPKPLVAIHDKPLIDWALDHLATAGVEEAVVNLHHLPEMLEAHLQGRATPRIHFSDETGQRLETGGGVRKALPHLGDDPFYVLNSDVLWLNGTIPALDRLAAAWDPETMDALLLLHPLAAAHGYEGLGDFDLDPLGRPTRRAEMHMAPFIFTGVQILHPRLFDDAPEGPFSLNVLYDRALSEDRLAAIVHDGEWYHVGTPQALVHTETILGQHSSMSDQLEHHHHHH | failed
21 | MAAEIGSDSQLKRRRRRDPEGSEKTELSEREPALAVEGREENDDENEERWVGPLPVEATLAKKRKVLEFERVYLENLPSASMYERSYMHRDVITHVVCTKTDFIITASHDGHVKFWKKIEEGIEFVKHFRSHLGIIESIAVSSEGALFCSVGDDKAMKVFDVVNFDMINMLKLGYFPGQCEWIYCPGDAISSVAASEKSTGKIFIYDGRGDNQPLHIFDKLHVSPLTQIRLNPVYKAVVSSDKSGMIEYWTGPPHEYKFPKTVNWEYKTDTDLYEFAKCKAYPTSICFSPDGKKIATIGSDRKVRIFRFLTGKLMRVFDESLSMFTELQQMRQQLPDMEFGRRMAVERELEKVDAVRLINIVFDETGHFVLYGTMLGIKVINVETNRCVRILGKQENIRVMQLALFQGIAKKHRAAATIEMKASENPVLQNIQADPTIVCTSFKKNRFYMFTKREPEDTKSADSDRDVFNEKPSKEEVMAATQAEGPKRVSDSAIVHTSMGDIHIKLFPVECPKTVENFCVHSRNGYYNGHTFHRIIKGFMIQTGDPTGTGMGGESIWGGEFEDEFHSTLRHDRPYTLSMANAGSNTNGSQFFITVVPTPWLDNKHTVFGRVTKGMEVVQRISNVKVNPKTDKPYEDVSIINITVK | failed
22 | MAAEPLTELEESIETVVTTFFTFARQEGRKDSLSVNEFKELVTQQLPHLLKDVGSLDEKMKSLDVNQDSELKFNEYWRLIGELAKEIRKKKDLKIRKK | not failed
23 | MAAFVRDYLEASVENETDGGRMRWYPWHSAEYRFTHIMNVVDIAERIAEATSANVDVVRVAALFHDIAKLEAEQDAHAEEGARIARKYLETHGQFPPSFVDQVAEAVSRHSYQGDLMDLPLEARCLVEADLLDKAGANGAALMLLRMGYEARTHVDAAEMIQRVLDRGEDAAERVESDAASSIAHRRLKRVRWLHDWLTSEVPAMNDTGY | failed
24 | MAAGFFQAEMSILSSTLARSYSLPIRKTLMTFDFRIAMQRNPCLRIRRSCVAAFSSTPSHSRNFPIRGLEDVFVGYLFGRKKATEVAHVVWEQVIQKGDTVIDATCGNGNDTLAMLKMVMHDSVGCGGYVYAMDIQKDAIESTSSLLDQAVGSKEKECVKLFNLCHSKMGEIVPENARVRMVAFNLGYLPGGNKSIITLSDTTLSALKAAERILKPGGLISLVVYIGHPGGREELEVVEAFGSGLPVSDWICCKFQMLNRPLAPVLVFMFKREN | failed
25 | MAAITEFLPKEYGYVVLVLVFYCFLNLWMGAQVGRARKRYNVPYPTLYAIESENKDAKLFNCVQRGHQNSLEMMPMYFILMILGGMKHPCICTGLGLLYNVSRFFYFKGYATGDPMKRLTIGKYGFLGLLGLMICTISFGVTLILA | failed
26 | MAAKICNRKNCKRSVQKMRIRSLLIILTIGLLLVNAICVSALGQTSESIARGDVYFGLMRYRDAIAWYKLDSTKAEAQWKIARAYVCYGDNAVPAEKEYNFRNAVRAANKCIELEETNANGHTWLAAALGNTAMYEGSKTKVRLCTQIKKELNRAIALNPKDDIAYSILGSFYREIGNISWLEKQLAMTFIGKIPDGTYEDSEKAFAKAIALNPTIMRHWYEQGLLYKYWNKNEQAIASFNKAKACPVFVSSDNKRLAAIEVYLKNLQ | failed
27 | MAAKPGIPKGTRDFSPVEMAKRNYIFNTIRDVFHLFGYQQIETPSMENLSTLMGKYGDEGDKLLFKIQNSGDYFNGITDEELLSRNAVKLASKFCEKGLRYDLTVPFARYVVMHRDEISFPFKRYQIQPVWRADRPQKGRYREFYQCDADVVGSNSLLNEVELVQMIDRVFGKFGVRVSIKINNRKILTGIAEIIGEADKIVDITVAIDKLDKIGLENVNAELASKGIPQEAIDKLQPIILLSGSNEEKLETLKTVLATSEAGLKGVEESEFILKTVSALGVKSEVELDLTLARGLNYYTGAIFEVKALDVQIGSISGGGRYDNLTGVFGMDGMSGVGISFGADRIFDVLNQLDLYPKE | not failed
